Measured values as given in patent US20160200813A1 (AbbVie / Abbott, published 2016).
“And” between values parts separate entries of the source, which are not always exact repeats. Identical values can stand only once.

Legend:
[1] = target: T1, Cynomolgus monkey LRP-8 expressed on HEK293 cells (cynomolgus monkey); assay: cell-based binding assay, cynoLRP8
T1 construct: whole, on cells; also called cyno LRP-8; cLRP-8

[2] = target: T2, Human LRP-8 (isoform 3) expressed on cells (human, UniProt Q14114 33-963); assay: cell-based binding assay, hLRP8
T2 construct: also called hLRP-8; huLRP-8
T2 sequence (Q14114 other isoform, or with tags, fused parts or gaps limits assumed): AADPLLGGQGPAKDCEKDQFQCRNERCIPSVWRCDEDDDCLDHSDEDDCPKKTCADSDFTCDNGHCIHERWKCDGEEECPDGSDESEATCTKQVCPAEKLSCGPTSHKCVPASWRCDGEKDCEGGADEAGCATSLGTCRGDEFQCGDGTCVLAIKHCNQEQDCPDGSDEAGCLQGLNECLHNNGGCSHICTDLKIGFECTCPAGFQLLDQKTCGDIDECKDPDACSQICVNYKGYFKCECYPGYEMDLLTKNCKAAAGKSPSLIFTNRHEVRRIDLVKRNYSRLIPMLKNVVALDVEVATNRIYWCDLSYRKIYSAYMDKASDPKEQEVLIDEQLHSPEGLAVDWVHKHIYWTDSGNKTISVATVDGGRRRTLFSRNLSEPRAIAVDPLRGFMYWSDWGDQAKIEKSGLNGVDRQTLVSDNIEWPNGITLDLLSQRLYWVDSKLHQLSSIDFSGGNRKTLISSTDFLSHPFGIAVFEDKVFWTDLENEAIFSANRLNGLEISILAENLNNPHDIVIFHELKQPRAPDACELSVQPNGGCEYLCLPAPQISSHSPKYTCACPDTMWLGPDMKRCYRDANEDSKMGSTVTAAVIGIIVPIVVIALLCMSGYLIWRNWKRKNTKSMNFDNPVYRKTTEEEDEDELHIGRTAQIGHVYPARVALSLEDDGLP

[3] = target: T1, Cynomolgus monkey LRP-8 expressed on …; assay: cell-based ECL-MSD, 10 ug/ml Ab, cyno-LRP-8-HEK293
Experimental: (§1) A cell-based ECL-MSD binding assay was used to determine antibody affinity. HEK293 cells overexpressing human, monkey or mouse LRP-8 were added onto MSD 96-well plate (MSD Cat# L15XB-3/L11XB-3) and incubated at 37° C. for one hour. Cells were blocked using 15% FBS (Hyclone, Thermo Scientific Cat# SH300700.03) at RT for 30 minutes with mild agitation. Plates were washed with DPBS three times and Abs or DVD-Ig binding proteins were added to the well. After incubation at RT for one hour, plates were washed with DPBS and goat anti-human or anti-mouse Sulfo TAG (MSD Cat#R32AJ-1) was added. Plates were incubated at RT for one hour, washed with DPBS and immersed in MSD read buffer (MSD Cat#R92TD-2) before reading on a MSD SECTOR Imager 6000. EC50 values were obtained using Xlfit4 software system.

[4] = target: T2, Human LRP-8 (isoform 3) expressed on …; assay: cell-based ECL-MSD, 10 ug/ml Ab, human_LRP-8_HEK293
Experimental: as §1

[5] = target: T2, Human LRP-8 (isoform 3) expressed on …; assay: cell-based or functional assay
[6] = target: T2, Human LRP-8 (isoform 3) expressed on …; assay: cell-based MSD-ECL binding on cells overexpressing human LRP-8 variant 3 (hLRP8 assay)
Experimental: as §1

[7] = target: T1, Cynomolgus monkey LRP-8 expressed on …; assay: cell-based MSD-ECL binding on cells overexpressing cyno LRP-8 variant 1 (cynoLRP8 assay)
Experimental: as §1

[8] = target: T1, Cynomolgus monkey LRP-8 expressed on …; assay: cell-based binding on CYNO LRP8-HEK293, supernatant 1:25
[9] = target: T1, Cynomolgus monkey LRP-8 expressed on …; assay: cell-based binding on CYNO LRP8-HEK293, supernatant 1:125
[10] = target: T1, Cynomolgus monkey LRP-8 expressed on …; assay: cell-based binding on CYNO LRP8-HEK293, supernatant 1:5

B1: anti-LRP-8 BGK-7A11 chimeric antibody (CL-105959) (antibody, V domains shown)
VH: QVTLKESGPGILQPSQTLSLTCTFSGFSLSTYGMGVGWIRQPAGTGLEWLANIWWDDDKYYNPSLKNRLTISKDTSNNQVFLKITNVDTADTATYYCARTTKPYYFDYWGQGVMVTVSS
VL: HFVLAQPNSVSTNLGSTVKLSCKRSTGNSGSNYVNWYQQYEGRSPTTMIYRDDKRPDGVPDRFSGSIDRSSNSALLTINNVQTEDEADYFCQSYSSGINIFGGGTKLTVL
EC50 [1]: 0.53 nM
EC50 [2]: 0.12 nM

B2: anti-LRP-8 BGK-7F7 chimeric antibody (CL-105960) (antibody, V domains shown)
VH: QVTLKESGPGILQPSQTLSLTCTFSGFSLSTYGLGVGWIRQPSGKGLEWLANIWWDDAKYYNPSLKNRLTISKDTSNNQAFLKIPNVDTADTARYYCARTTKPYYFDYWGQGVMVTVSS
VL: HFVLAQPNSVSTNLGSTVKLSCKRSTANIGSNYVNWYQQHEGRSPTTLIYRDDRRPDGVPDRFSGSIDRSSNSALLTINNVQTEDEADYFCQSYSSGINIFGGGTKLTVL
EC50 [1]: 0.35 nM
EC50 [2]: 0.11 nM

B3: anti-LRP-8 BGK-6B5-2 chimeric antibody (CL-105969) (antibody, V domains shown)
VH: QVSLQESGPGILQPSQTLSLTCTFSGFSLSTFGMGVGWIRQPSGKGLEWLANIWWDDDKYYNPSLKNRLTISKDTSNNQAFLKITNVDTADTATYYCARTAKPYYFDYWGHGVMVTVSS
VL: HFVLAQPNSVSTNLGNTVKLSCKRSTGNIGSNYVNWYQQHEGRSPTTLIYRDDKRPDGVPDRFSGSFDRSSNSALLTINNVQTEDEADYFCQSYNSGINFFGGGTKLTVL
EC50 [1]: 0.51 nM
EC50 [2]: 0.15 nM

B4: anti-LRP-8 antibody ab58216 (mFc) (antibody, V domains shown)
VH: EVHLQQSGPEVVKPGASVKISCKASGYIISGYFLNWVKQSHGKSLEWVGRINPYSGDTFFNQKFKGKATLTVDKSSNTAHMELRSLTSEDSAVFYCAREDIGRFAYWGQGTLVTVSA
VL: DVLMTQTPLSLPVSLGDQASISCRSSQTIVHSNGNTYLEWYLQKPGQSPKLLIYKVSNRFSGVPDRFSGSGSGTDFTLKISRVEAEDLGVYYCFQGSHAPPTFGGGTKLEIK
notes: Mouse Fc form
fold over mIgG control [3]: 1.2 fold
fold over mIgG control [4]: 17.3 fold
Endocytosis, fold over IgG control [5]: 2.6 fold
Transcytosis, fold over IgG control [5]: 1.53 fold

B5: anti-LRP-8 ML201-2B4.2B1.2H10 murine antibody (muFc) (antibody, V domains shown)
VH: DVKLVASGGGLVKPGGSLKLSCAASGFTLSRYAMSWVRQTPEKRLEWVAYIRNGGDYIYYADTVKGRFTISRDNARNTLYLQMSSLKSEDTAMYYCTREGSYYNFDYWGQGTTLTVSS
VL: DVLMTQTPLSLPVSLGDQASISCRSSQSIVHSNGNTYLEWYLQKPGQSPNLLIFKVSNRFSGVPDRFIGSGSGTDFTLKISRVEAEDLGVYYCFQGSHVPWTFGGGTKLEIK
notes: Mouse Fc form; also called ML201-2B4.2B1.2H10 muFc; CL-33867
fold over mIgG control [3]: 2.8 fold
fold over mIgG control [4]: 14.2 fold
Endocytosis, fold over IgG control [5]: 1.8 fold
Transcytosis, fold over IgG control [5]: 1.44 fold

B6: anti-LRP-8 BGK-9D10-2 antibody (CL-105967) (antibody, V domains shown)
VH: EVQLVESGGGLVQSGRSLKLSCAASGFTFSNYYMAWVRQAPKKGLEWVATITTSGSRSFYPDSVKGRFTISRDNAKSSLYLQINSLKSEDTATYYCARRGPLGYFDHWGRGVMVTVSS
VL: DIQMTQSPPSLPASLGDKVTITCQASQNINKYIAWYQQKPGKAPRLLIRFTSTLESDTPSRFSGSGSGRDYSFSISNVESEDFASYYCLHYDNLPPWTFGGGTKLELK
notes: also called BGT-9D10-2
EC50 [6]: 0.108 µg/mL and 0.54 nM
EC50 [1]: 0.64 nM
EC50 [7]: 0.12 µg/mL and 0.6 nM
EC50 [2]: 2.29 nM

B7: anti-LRP-8 BGK.6E3.F4 [r/m IgG2a/K] (antibody, V domains shown)
VH: EVQLVESGGGLVQPGKSLKLSCAASGFTFSDYNMAWVRQAPKKGLEWVATIMYDGSRTFYRDSVKGRYTFSRDNAKSTLYLQMDSLRSEDTATYYCATGRNWFAYWGQGTLVTVSS
VL: DIIMTQSPSSLAVSAGETVTINCKSSQSLLSSGKQKNYLAWYQQKPGQSPKLLIYLASTRESGVPDRFIGSGSGTDFTLTISSMQAEDLAIYYCQQHYDTPLTFGSGTKLEIK
notes: Rat variable domains on mouse IgG2a/kappa
fold over isotype control [8]: 1.02 fold
EC50 [1]: 0.25 nM
fold over isotype control [9]: 0.87 fold
fold over isotype control [10]: 0.41 fold
EC50 [2]: 0.11 nM

B8: anti-LRP-8 BGK.5D10.E4 [r/m IgG2a/K] (antibody, V domains shown)
VH: QVQLRETGPDLVQPTQTLSLTCTVSGFSLTNYPVQWVRQPPGSGLEWLGIMWPSGAADFNPALKSRLSISRDTSKSQFFLRMDNLQTDDTAIYFCARGRGYSSPYAMDAWGQGTSVTVSS
VL: DIQMTQSPASLSASLGETVSIECLASEDIYNNLAWYQQKPGKSPHLLIHFTSNLQDGVPSRFSGSGSGTQYSLKINSLESEDGATYFCLQDSEYPLTFGSGTKLEIK
notes: as for B7
fold over isotype control [8]: 30.2 fold
EC50 [1]: 0.77 nM
fold over isotype control [9]: 28.2 fold
fold over isotype control [10]: 5.85 fold
EC50 [2]: 0.24 nM

B9: anti-LRP-8 BGK-2H4 chimeric antibody (CL-105945) (antibody, V domains shown)
VH: EVQLVESGGGLVQPGRSMKLSCAASGFTFSSFPMAWVRQAPTKGLEWVATVSTRGGHTYYRDSVKGRFTISRDNAKNTLYLQMNSLRSEDTATYYCIREGTSLFAYWGQGTLVTVSS
VL: DIQMTQSPPSLSASLGETVSIECLASEDISNYLAWYQQKPGKSPQLLIYYANSLEDGVPSRFSGSGSGTQYSLKISNMQPEDEGVYHCQQGYNYPYTFGAGTKLELK
EC50 [1]: 1.08 nM
EC50 [2]: 0.21 nM

B10: anti-LRP-8 ML201-8F3.3D7 murine antibody (muFc) (antibody, V domains shown)
VH: EVQLVESGGDLVKPGGSLKLSCAASRFTFSNFGMSWVRQTPDKRLEWVATISSGGRYTYYPDSVKGRFTISRDNAKNTLYLQMSSLRSEDTAMYYCARDYLYAMDYWGQGTSVTVSS
VL: DVVMTQTPLSLPVSLGDQASISCRSSQSLVYSNGNTYLHWYLQKPGQSPKVLMYKVSNRFSGVSDRFSGSGSGTDFTLKISRVEAEDLGVYFCSQSTHVPLTFGAGTKLELK
notes: Mouse Fc form; also called ML201-8F3-3D7 muFc; CL-33866
fold over mIgG control [3]: 5.2 fold
fold over mIgG control [4]: 13.6 fold
Endocytosis, fold over IgG control [5]: 1.6 fold
Transcytosis, fold over IgG control [5]: 1.08 fold

B11: chimeric anti-LRP-8 ML201-8F3.3D7 antibody (antibody, V domains shown)
VH: EVQLVESGGDLVKPGGSLKLSCAASRFTFSNFGMSWVRQTPDKRLEWVATISSGGRYTYYPDSVKGRFTISRDNAKNTLYLQMSSLRSEDTAMYYCARDYLYAMDYWGQGTSVTVSS
VL: DVVMTQTPLSLPVSLGDQASISCRSSQSLVYSNGNTYLHWYLQKPGQSPKVLMYKVSNRFSGVSDRFSGSGSGTDFTLKISRVEAEDLGVYFCSQSTHVPLTFGAGTKLELK
notes: also called ML201.8F3.3D7 hFc; CL-33866
EC50 [2]: 0.16 nM

B12: anti-LRP-8 BGK-2C8.8C antibody (antibody, V domains shown)
VH: EVQLVESGGGLVQPGRSLKLSCAASGFTVSDYYMAWVRQAPKKGLEWVASISYEGSSTYYGDSVKGRFTISRDNAKSILYLQMNSLRSEDTATYYCARPLRYYGYNYRFAYWGQGTLVTVSS
VL: DIQMSQSPPVLSASVGDRVTLSCKASQNIHKNLDWYQQKHGEAPKLLIYYTDNLQTGIPSRFSGSGSGTDYTLTISSLQPEDVATYYCYQYNSGPTFGAGTKLELQ
EC50 [6]: 0.55 µg/mL and 2.75 nM
EC50 [1]: 0.82 nM
EC50 [7]: 0.0881 µg/mL and 0.44 nM
EC50 [2]: 2.62 nM

B13: anti-LRP-8 BGK.2C8.E6.D3 [r/m IgG2a/K] (antibody, V domains shown)
VH: QVTLKESGPGILQPSQTLSLTCTFSGFSLNTYGMGVGWVRQPSGKGLEWLANIWWDDDKFYNPSLKNRLTVSKDTSNNQAFLRITNGDTADTATYFCARILGEDIGGALDAWGQGTSVTVSS
VL: DTVLTQSPALAVSPGERVSISCRASEGVNSYMHWYQQNPGQQSKLLIYRTSNLASGVPARFGGSGSGTDFTLTIDPVEADDTATYFCQQSWNDPPTFGGGTKLELK
fold over isotype control [8]: 13.8 fold
EC50 [1]: 0.31 nM
fold over isotype control [9]: 13.7 fold
fold over isotype control [10]: 5.16 fold
EC50 [2]: 0.1 nM
